The supplement of paper PMC10567573
± gives the standard deviation.

Experiment: protein stability index of a GFP-peptide fusion (GPS, HEK-293T) (PSI 1-6); higher = more stable
[1] = treatment: DMSO, c terminus: a fixed tail appended
[2] = treatment: MLN4924 1 uM, 8 h, c terminus: a fixed tail appended
[3] = treatment: DMSO, c terminus: native
[4] = treatment: MLN4924 1 uM, 8 h, c terminus: native
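Also: 24-mer peptide tiles fused after GFP, lentivirally expressed, FACS-sorted into six equal bins by GFP/DsRed ratio, decoded by Illumina sequencing, PSI is the read-weighted mean bin number.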

Row | Sequence | protein stability index [1] | protein stability index [2] | protein stability index [3] | protein stability index [4]
1 | TFFCTNATIHGAIRLVCSRGNRLK [SCNN1D] | 2.54 ± 0.27 | 2.41 ± 0.41 |  | 
2 | TGEAARPHKGLNLHPLLSGRLGRW [PCDHGC5] | 2.77 ± 0.17 | 2.9 ± 0.23 |  | 
3 | TGGAAGAGGAGRGEDEENREHRVR [KCTD13] | 5.24 ± 0.26 | 5.53 ± 0.32 |  | 
4 | TGLVYDQNMMNHCNLWDSHHPEVP [HDAC6] | 3.08 ± 0.29 | 3.25 ± 0.18 |  | 
5 | TGNYRKGNAHLGYSLVTHIPAGAR [ADAMTSL2] | 2.95 ± 0.17 | 2.69 ± 0.3 |  | 
6 | TIEDEDTKVRKQEIIKVTEQLIEA [CAMK2A] | 5.27 ± 0.28 | 5.02 ± 0.25 |  | 
7 | TKITSKHVKMMLSGVCLFAVFIAL [PTGFR] | 3.2 ± 0.24 | 2.78 ± 0.1 |  | 
8 | TKKGDLQWNAGEKKLTGGANWQPK [SNAP91] | 4.07 ± 0.13 | 4.26 ± 0.23 |  | 
9 | TKRVRQLLDLDPEVECLKANTNEV [GOLPH3] | 4.29 ± 0.32 | 4.62 ± 0.22 |  | 
10 | TLCAMLPLLLFTYLNSFLHQRIPQ [SLC29A1] | 3.18 ± 0.14 | 3.06 ± 0.17 |  | 
11 | TLPTLPAKVYVGVKQEIAEMRIPA [NCF4] | 3.36 ± 0.34 | 3.7 ± 0.39 |  | 
12 | TLRLRENCVLSSSPNPFPEISRGE [ZNF8] | 3.61 ± 0.33 | 3.66 ± 0.33 |  | 
13 | TLSLKQTILDKEEKQRRNVAKNY [TTC32] |  |  | 4.27 ± 0.36 | 4.29 ± 0.54
14 | TLYLIVALATVSLLSLVTFTFLSA [PCDHGC5] | 3.2 ± 0.13 | 3.26 ± 0.29 |  | 
15 | TNGELNTDDPTAGRSNAPITAPTE [CSNK1G3] | 5.41 ± 0.15 | 5.41 ± 0.16 |  | 
16 | TNGHGGEAAEGKSLGSALKPGEGR [TRIM29] | 5.08 ± 0.24 | 5.27 ± 0.33 |  | 
17 | TNGSFSPSGNNGSVNWRTGSFHGP [DLC1] | 3.09 ± 0.3 | 3.11 ± 0.23 |  | 
18 | TNLLEGAVAFMPEDITKGTQSLPT [AUP1] | 4.55 ± 0.12 | 4.47 ± 0.17 |  | 
19 | TPGSRIESILMSLPLTARWEYMHS [CPOX] | 2.33 ± 0.27 | 2.24 ± 0.12 |  | 
20 | TPYPNLYPDQSPSEDWTMEERFRP [CLCN6] | 3.85 ± 0.26 | 4.07 ± 0.15 |  | 
21 | TQHVNNWMKHNVADSQITTIGNLV [PTPRD] | 2.9 ± 0.44 | 3.12 ± 0.42 |  | 
22 | TRVSQLGLQVEGLRRRLEELQQEL [LRRC45] | 4.36 ± 0.24 | 4.55 ± 0.46 |  | 
23 | TSEVDKRRTRPRHHHGRSRPDRSS [CHGB] | 5.07 ± 0.37 | 5.06 ± 0.31 |  | 

Row | Sequence | protein stability index [1] | protein stability index [2] | protein stability index [3] | protein stability index [4]
24 | TSITLTASRVSKVNDKRRKKSGEK [KMT2E] | 4.04 ± 0.28 | 4.47 ± 0.17 |  | 
25 | TSLQGLTGTPLVAGSPIRHENAVQ [ISL2] | 4.31 ± 0.33 | 4.36 ± 0.16 |  | 
26 | TSRFGSQCMQPNNIMGIENICELA [NR2F2] | 2.88 ± 0.28 | 2.74 ± 0.35 |  | 
27 | TSRNLIGGADIIVIKYNVNDKFSF [RHOBTB3] | 2.83 ± 1.2 | 2.68 ± 1.6 |  | 
28 | TSSGLATASFRTSKYLLEEWFQNC [TEKT4] | 2.68 ± 0.21 | 2.7 ± 0.14 |  | 
29 | TTGPNPFTTLTDRELEEYRREVER [ADD1] | 5.08 ± 0.18 | 5.16 ± 0.21 |  | 
30 | TTLKGHEGSVACLWWDPIQRLLFS [WDFY1] | 2.08 ± 0.27 | 2.35 ± 0.39 |  | 
31 | TTREIRRQEAIYEMSRGEQDLIED [NET1] | 5.25 ± 0.16 | 5.13 ± 0.17 |  | 
32 | TTTRRIVDGKVVSETNDTKVLRH [KRT18] |  |  | 5.19 ± 0.24 | 5.28 ± 0.3
33 | TVPEILVHNIVIFMRTSVKISYIG [TMEM106C] | 3.01 ± 0.38 | 3.11 ± 0.29 |  | 
34 | TVTLTVAVADSIPQVLADLGSFES [PCDHGA10] | 2.28 ± 0.32 | 2.11 ± 0.093 |  | 
35 | TWSNQTQNIQSWSNHSWNTQTWCT [NANOGP8] | 2.27 ± 0.15 | 2.27 ± 0.26 |  | 
36 | TYGQPKQAPPADFIPAHVAFDKKV [EFHC1] | 3.81 ± 0.34 | 4.16 ± 0.061 |  | 
37 | TYGWTANMERIMKAQALRDNSTMG [HSP90AB1] | 2.87 ± 0.24 | 3.31 ± 0.3 |  | 
38 | TYPAHQNRVSAIIFSLATEWVIST [WDFY1] | 3.57 ± 0.89 | 2.92 ± 1.1 |  | 
39 | VAFRGLKGKKLYPVVSAVWGHCEI [SPSB1] | 2.62 ± 0.13 | 3.16 ± 0.071 |  | 
40 | VAHCHQSAIVLGDLKLRKFVFSTE [TRIB1] | 2.25 ± 0.36 | 2.36 ± 0.63 |  | 
41 | VASFKFDAGEVSYLPRDFSTYRPL [MYORG] | 2.28 ± 0.37 | 2.54 ± 0.17 |  | 
42 | VCDESVRKLSSAVRSGIVEYLSLV [PRIM1] | 2.34 ± 0.83 | 2.1 ± 0.3 |  | 
43 | VDDVSVSLRLWDTFGDHHKDRRFA [RHOBTB2] | 3.28 ± 0.23 | 3.19 ± 0.28 |  | 
44 | VDICHMLVQFCRLGSPRSRGCLW [EHMT1] |  |  | 2.67 ± 0.14 | 2.71 ± 0.66
45 | VDLVQKYLEKYYNLKNDGRQVEKR [MMP1] | 2.42 ± 0.25 | 2.68 ± 0.36 |  | 
46 | VDQMNRIVEVLGIPPAAMLDQAPK [DYRK1B] | 3.62 ± 0.25 | 3.52 ± 0.15 |  | 

Row | Sequence | protein stability index [1] | protein stability index [2] | protein stability index [3] | protein stability index [4]
47 | VEAKSWTASSSYGKGEGPIWLDNL [LOXL2] | 2.42 ± 0.31 | 2.61 ± 0.74 |  | 
48 | VEEGDSRFLANEVLQENYTHLPKA [WEE1] | 4.74 ± 0.2 | 4.81 ± 0.13 |  | 
49 | VFFIYLYQRWIYRVDPTRVNEFGM [CLPTM1] | 2.96 ± 0.49 | 2.69 ± 0.055 |  | 
50 | VFPGARLLTIGDANGEIQRHAEQQ [CARM1] | 4.64 ± 0.16 | 4.23 ± 0.2 |  | 
51 | VFQEMLLHKFPYRMVPALPPKRML [SNX8] | 2.12 ± 0.54 | 2.13 ± 0.22 |  | 
52 | VFQTEQKNLFRLEMDMVVFRPEMK [N4BP2L1] | 2.02 ± 0.26 | 2.16 ± 0.092 |  | 
53 | VGDIVSFMHSFEEKYGRAHPVFYQ [FAF2] | 2.04 ± 0.34 | 2.17 ± 0.22 |  | 
54 | VGEIVGIITRHNLTYEFLQARLRQ [CLCN6] | 2.73 ± 0.64 | 2.67 ± 0.85 |  | 
55 | VGLRNTLTRIRKWIEHSKLREINF [GLT8D2] | 2.41 ± 0.3 | 1.9 ± 0.31 |  | 
56 | VGPRETEEKVRDLLWAKFTNSDTP [TOR1AIP2] | 4.14 ± 0.43 | 4.1 ± 0.3 |  | 
57 | VGRIANTYNLTEVDKYVNSFVLKN [KLHL13] | 2.64 ± 0.32 | 2.85 ± 0.45 |  | 
58 | VGSALHRESFTSRQKTSGPSVIQE [C10orf62] | 4.18 ± 0.15 | 4.46 ± 0.2 |  | 
59 | VHETPAASKTVFFFFSSPGNNNGT [BTBD1] | 2.37 ± 0.3 | 2.15 ± 0.31 |  | 
60 | VHPIIKRRQCRPEIRMWQTREKAK [PHTF1] | 3.15 ± 0.21 | 3.32 ± 0.13 |  | 
61 | VILISRISSVGGEAMFCDFPKINH [CFHR2] | 3.66 ± 1.3 | 2.97 ± 0.21 |  | 
62 | VILKNSQGEEVAQRSTVFKTTIPE [LMNB1] | 2.67 ± 0.34 | 2.84 ± 0.24 |  | 
63 | VKDALFCSCLSDILRFIYSGAFQW [RHOBTB3] | 2.79 ± 0.36 | 3.31 ± 0.48 |  | 
64 | VKDDELDAMLKEASGPINFTMFLN [MYL5] | 3.39 ± 0.082 | 3.5 ± 0.19 |  | 
65 | VKYGLAATVWSSNVGRVHRVAKKL [ALDH8A1] | 2.48 ± 0.33 | 2.43 ± 0.4 |  | 
66 | VKYVGNMHGNEALGRELMLQLSEF [CPN1] | 2.24 ± 0.2 | 2.25 ± 0.39 |  | 
67 | VLLKTADPRYELPSRKYISTKAIP [ZBED1] | 2.19 ± 0.37 | 2.34 ± 0.62 |  | 
68 | VLMLLVALLFTGIAVLGIVMLKRI [SCAMP3] | 2.85 ± 0.63 | 3.02 ± 0.73 |  | 
69 | VNHYSEVADGLCCVLTTPCLTQST [SLA] | 2.77 ± 0.27 | 2.53 ± 0.38 |  | 

Row | Sequence | protein stability index [1] | protein stability index [2] | protein stability index [3] | protein stability index [4]
70 | VNNNYEHRHTSHLGHAVLPSNARG [SPRY1] | 3.96 ± 0.2 | 4.03 ± 0.21 |  | 
71 | VPAPEAFRDPIWSTWALYGRAVDQ [MYORG] | 2.66 ± 0.38 | 2.61 ± 0.34 |  | 
72 | VPCYSKTQKLSKIETLRLAKNYIW [NEUROD6] | 2.43 ± 0.34 | 2.81 ± 0.58 |  | 
73 | VPSAVRCLQKRGSATSSSNTSLT [FSD1] |  |  | 4.34 ± 0.13 | 4.43 ± 0.082
74 | VPWNQVGMRDADYIAAFLHVLLPV [HDAC6] |  | 2.07 ± 1.5 |  | 
75 | VQDYSYFFFLRMDENYNLLPHGVN [CCDC3] | 2.38 ± 0.48 | 2.48 ± 0.37 |  | 
76 | VQESQSERLQAAGTDSAGPKTVPS [ELOA2] | 5.29 ± 0.38 | 5.19 ± 0.35 |  | 
77 | VSAQYLSEIEMAKAQRDYELKKAA [FLOT1] | 4.34 ± 0.22 | 4.54 ± 0.14 |  | 
78 | VSCPKSEVRAKFKFSLLNAKREET [SPOPL] | 3.67 ± 0.3 | 3.53 ± 0.19 |  | 
79 | VSPGPSRSFKEELLCAVCYDPFRD [TRIM35] | 2.79 ± 0.21 | 2.91 ± 0.27 |  | 
80 | VSTQPAMMVNLRACSAPGGLVPSE [C2CD2L] | 3.43 ± 0.16 | 3.5 ± 0.14 |  | 
81 | VTADDFVQTSVIGSNGYILNKPAL [EHMT1] | 3.11 ± 0.26 | 3.13 ± 0.25 |  | 
82 | VVFGLLLSYVMSGYRCFVCPVEYN [CDS2] | 3.55 ± 0.062 | 3.41 ± 0.31 |  | 
83 | VVGDNAVGKTRLICARACNATLTQ [RHOBTB2] | 2.63 ± 0.17 | 2.67 ± 0.14 |  | 
84 | VVNESTVCLMGHERRQTLNLISLL [TENT5C] | 2.18 ± 0.23 | 2.31 ± 0.12 |  | 
85 | VYGVSKETFLSFLEYLYTDSCCPA [RHOBTB3] | 2.16 ± 0.41 | 2.1 ± 0.24 |  | 
86 | VYLHFLSVVTEDGPEPKDKGSLPQ [ZNF232] | 2.27 ± 0.18 | 2.35 ± 0.33 |  | 
87 | VYNANINLFCVLRLVVEFPATGGA [PKD2L1] | 3.05 ± 0.41 | 3.13 ± 0.71 |  | 
88 | WEGFIGGFFSTVVFGFIAAYVLSK [CDS1] | 2.55 ± 0.54 | 3.08 ± 0.15 |  | 
89 | WEHRTRVGRLYAVYDQAVSIFYDL [SMAD6] | 2.52 ± 0.66 | 2.59 ± 0.47 |  | 
